Literature values as cited in publication PMC10872408 (Structure (London, England : 1993), 2023).

Target: Gαi3 (Rattus norvegicus) (UniProt P08753)
Details: cited from earlier work

GINIP, sequence (Q9UPV7 2-400): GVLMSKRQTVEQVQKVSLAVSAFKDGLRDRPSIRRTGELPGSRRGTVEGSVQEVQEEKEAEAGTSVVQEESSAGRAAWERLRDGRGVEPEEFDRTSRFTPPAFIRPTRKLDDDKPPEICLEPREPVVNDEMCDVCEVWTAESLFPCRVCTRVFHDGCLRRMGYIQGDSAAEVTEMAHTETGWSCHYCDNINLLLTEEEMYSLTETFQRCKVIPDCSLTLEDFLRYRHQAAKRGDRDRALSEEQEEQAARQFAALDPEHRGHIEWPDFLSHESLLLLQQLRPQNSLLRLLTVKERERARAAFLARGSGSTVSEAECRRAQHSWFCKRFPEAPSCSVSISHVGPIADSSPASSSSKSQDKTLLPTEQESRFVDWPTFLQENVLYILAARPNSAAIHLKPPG
Gαi3 (Rattus norvegicus), sequence (P08753 2-354): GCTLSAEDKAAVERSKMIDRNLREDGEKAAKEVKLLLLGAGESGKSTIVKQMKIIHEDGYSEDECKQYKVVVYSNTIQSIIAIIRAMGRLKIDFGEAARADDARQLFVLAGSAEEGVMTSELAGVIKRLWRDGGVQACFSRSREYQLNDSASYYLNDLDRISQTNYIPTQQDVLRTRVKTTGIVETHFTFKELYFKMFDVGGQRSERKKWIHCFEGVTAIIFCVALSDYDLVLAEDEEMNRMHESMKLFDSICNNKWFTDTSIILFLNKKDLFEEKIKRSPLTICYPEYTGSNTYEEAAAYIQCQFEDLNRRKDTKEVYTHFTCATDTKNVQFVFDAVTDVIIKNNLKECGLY

GINIP (from UniProt Q9UPV7)
Kd: 65 nM
